PMC10786891, “Massively parallel profiling of RNA-targeting CRISPR-Cas13d”
Substitutions are numbered along the chain they refer to. Names may count otherwise.

B1: target 1 G5A,C7U (mixed)
RNA 1: CACCCGUGCAAAAAUGCAGGGGUCUAAAACUGAGCGGAUAACCUCUCUAUGG
RNA 2: GGGAAUGGAUCCACAUCUACGAAUUCGUACCAUAGAGAGGUUAUUCACUCACCGAGAUCGGAAGAGCACACGU
B2: target 1 U3G,U19A (mixed)
RNA 1: B1 RNA 1
RNA 2: B1 RNA 2 with U33A, U45C, A47G, U49G
B3: target 1 G15U,A16G (mixed)
RNA 1: B1 RNA 1
RNA 2: B1 RNA 2 with A36G, G37U, U45C, A47G
B4: target 1 insA 3' of 21,insU 3' of 13 (mixed)
RNA 1: B1 RNA 1
RNA 2: GGGAAUGGAUCCACAUCUACGAAUUCGUACCAAUAGAGAGUGUUAUCCGCUCACCGAGAUCGGAAGAGCACACGU
B5: target 2 MT 5'PFS CAC 3'PFS AGC (mixed)
RNA 1: CACCCGUGCAAAAUUGCAGGGGUCUAAAACCUUCUCCAAAUUGUUUCAUCCU
RNA 2: GGGAAUGGAUCCACAUCUACGAAUUCCACAGGAUGAAACAAUUUGGAGAAGAGCAGAUCGGAAGAGCACACGU
B6: target 2 MT 5'PFS GGA 3'PFS AUC (mixed)
RNA 1: B5 RNA 1
RNA 2: B5 RNA 2 with C27G, A28G, C29A, G53U
B7: target 2 MT 5'PFS UAU 3'PFS CCG (mixed)
RNA 1: B5 RNA 1
RNA 2: B5 RNA 2 with C27U, C29U, A52C, G53C, C54G
B8: target 2 MT 5'PFS GGA 3'PFS AUA (mixed)
RNA 1: B5 RNA 1
RNA 2: B5 RNA 2 with C27G, A28G, C29A, G53U, C54A
B9: target 2 MT 5'PFS GAG 3'PFS CUC (mixed)
RNA 1: B5 RNA 1
RNA 2: B5 RNA 2 with C27G, C29G, A52C, G53U
B10: target 2 MT 5'PFS GUU 3'PFS CUU (mixed)
RNA 1: B5 RNA 1
RNA 2: B5 RNA 2 with C27G, A28U, C29U, A52C, G53U, C54U
B11: target 2 MT 5'PFS CAC 3'PFS CGA (mixed)
RNA 1: B5 RNA 1
RNA 2: B5 RNA 2 with A52C, C54A
B12: target 2 MT 5'PFS CAU 3'PFS UAG (mixed)
RNA 1: B5 RNA 1
RNA 2: B5 RNA 2 with C29U, A52U, G53A, C54G
B13: target 2 MT 5'PFS CAU 3'PFS UAC (mixed)
RNA 1: B5 RNA 1
RNA 2: B5 RNA 2 with C29U, A52U, G53A
B14: target 2 MT 5'PFS GCA 3'PFS UCU (mixed)
RNA 1: B5 RNA 1
RNA 2: B5 RNA 2 with C27G, A28C, C29A, A52U, G53C, C54U
B15: target 2 MT 5'PFS CUU 3'PFS UCG (mixed)
RNA 1: B5 RNA 1
RNA 2: B5 RNA 2 with A28U, C29U, A52U, G53C, C54G
B16: target 2 MT 5'PFS GGU 3'PFS CUA (mixed)
RNA 1: B5 RNA 1
RNA 2: B5 RNA 2 with C27G, A28G, C29U, A52C, G53U, C54A
B17: target 2 MT 5'PFS GAC 3'PFS UCU (mixed)
RNA 1: B5 RNA 1
RNA 2: B5 RNA 2 with C27G, A52U, G53C, C54U
B18: target 2 MT 5'PFS GAG 3'PFS CUA (mixed)
RNA 1: B5 RNA 1
RNA 2: B5 RNA 2 with C27G, C29G, A52C, G53U, C54A
B19: target 2 MT 5'PFS CUU 3'PFS UCC (mixed)
RNA 1: B5 RNA 1
RNA 2: B5 RNA 2 with A28U, C29U, A52U, G53C
B20: target 2 MT 5'PFS CAU 3'PFS UAU (mixed)
RNA 1: B5 RNA 1
RNA 2: B5 RNA 2 with C29U, A52U, G53A, C54U
B21: target 2 MT 5'PFS UGG 3'PFS UUC (mixed)
RNA 1: B5 RNA 1
RNA 2: B5 RNA 2 with C27U, A28G, C29G, A52U, G53U
B22: target 2 MT 5'PFS GCU 3'PFS CAG (mixed)
RNA 1: B5 RNA 1
RNA 2: B5 RNA 2 with C27G, A28C, C29U, A52C, G53A, C54G
B23: target 2 MT 5'PFS UAU 3'PFS CCA (mixed)
RNA 1: B5 RNA 1
RNA 2: B5 RNA 2 with C27U, C29U, A52C, G53C, C54A
B24: target 2 MT 5'PFS GAC 3'PFS UCG (mixed)
RNA 1: B5 RNA 1
RNA 2: B5 RNA 2 with C27G, A52U, G53C, C54G
B25: target 2 MT 5'PFS GCA 3'PFS UCC (mixed)
RNA 1: B5 RNA 1
RNA 2: B5 RNA 2 with C27G, A28C, C29A, A52U, G53C
B26: target 2 MT 5'PFS GAC 3'PFS UCA (mixed)
RNA 1: B5 RNA 1
RNA 2: B5 RNA 2 with C27G, A52U, G53C, C54A
B27: target 2 MT 5'PFS GAG 3'PFS CUG (mixed)
RNA 1: B5 RNA 1
RNA 2: B5 RNA 2 with C27G, C29G, A52C, G53U, C54G
B28: target 2 MT 5'PFS CAC 3'PFS CGC (mixed)
RNA 1: B5 RNA 1
RNA 2: B5 RNA 2 with A52C
B29: target 2 MT 5'PFS UUA 3'PFS UCA (mixed)
RNA 1: B5 RNA 1
RNA 2: B5 RNA 2 with C27U, A28U, C29A, A52U, G53C, C54A
B30: target 2 MT 5'PFS UUA 3'PFS UCU (mixed)
RNA 1: B5 RNA 1
RNA 2: B5 RNA 2 with C27U, A28U, C29A, A52U, G53C, C54U
B31: target 2 MT 5'PFS CUU 3'PFS UCA (mixed)
RNA 1: B5 RNA 1
RNA 2: B5 RNA 2 with A28U, C29U, A52U, G53C, C54A
B32: target 2 MT 5'PFS GCU 3'PFS CAC (mixed)
RNA 1: B5 RNA 1
RNA 2: B5 RNA 2 with C27G, A28C, C29U, A52C, G53A
B33: target 2 MT 5'PFS GUU 3'PFS CUA (mixed)
RNA 1: B5 RNA 1
RNA 2: B5 RNA 2 with C27G, A28U, C29U, A52C, G53U, C54A
B34: target 2 MT 5'PFS GUU 3'PFS CUC (mixed)
RNA 1: B5 RNA 1
RNA 2: B5 RNA 2 with C27G, A28U, C29U, A52C, G53U
B35: target 2 MT 5'PFS GUU 3'PFS CUG (mixed)
RNA 1: B5 RNA 1
RNA 2: B5 RNA 2 with C27G, A28U, C29U, A52C, G53U, C54G
B36: target 2 MT 5'PFS GGA 3'PFS AUG (mixed)
RNA 1: B5 RNA 1
RNA 2: B5 RNA 2 with C27G, A28G, C29A, G53U, C54G
B37: target 2 MT 5'PFS CAU 3'PFS UAA (mixed)
RNA 1: B5 RNA 1
RNA 2: B5 RNA 2 with C29U, A52U, G53A, C54A
B38: target 2 MT 5'PFS UUU 3'PFS CCG (mixed)
RNA 1: B5 RNA 1
RNA 2: B5 RNA 2 with C27U, A28U, C29U, A52C, G53C, C54G

Molecular target: T1, EsCas13d, nuclease-dead (Eubacterium siraeum, UniProt B0MS50, R295A;H300A;R849A;H854A)
T1 sequence: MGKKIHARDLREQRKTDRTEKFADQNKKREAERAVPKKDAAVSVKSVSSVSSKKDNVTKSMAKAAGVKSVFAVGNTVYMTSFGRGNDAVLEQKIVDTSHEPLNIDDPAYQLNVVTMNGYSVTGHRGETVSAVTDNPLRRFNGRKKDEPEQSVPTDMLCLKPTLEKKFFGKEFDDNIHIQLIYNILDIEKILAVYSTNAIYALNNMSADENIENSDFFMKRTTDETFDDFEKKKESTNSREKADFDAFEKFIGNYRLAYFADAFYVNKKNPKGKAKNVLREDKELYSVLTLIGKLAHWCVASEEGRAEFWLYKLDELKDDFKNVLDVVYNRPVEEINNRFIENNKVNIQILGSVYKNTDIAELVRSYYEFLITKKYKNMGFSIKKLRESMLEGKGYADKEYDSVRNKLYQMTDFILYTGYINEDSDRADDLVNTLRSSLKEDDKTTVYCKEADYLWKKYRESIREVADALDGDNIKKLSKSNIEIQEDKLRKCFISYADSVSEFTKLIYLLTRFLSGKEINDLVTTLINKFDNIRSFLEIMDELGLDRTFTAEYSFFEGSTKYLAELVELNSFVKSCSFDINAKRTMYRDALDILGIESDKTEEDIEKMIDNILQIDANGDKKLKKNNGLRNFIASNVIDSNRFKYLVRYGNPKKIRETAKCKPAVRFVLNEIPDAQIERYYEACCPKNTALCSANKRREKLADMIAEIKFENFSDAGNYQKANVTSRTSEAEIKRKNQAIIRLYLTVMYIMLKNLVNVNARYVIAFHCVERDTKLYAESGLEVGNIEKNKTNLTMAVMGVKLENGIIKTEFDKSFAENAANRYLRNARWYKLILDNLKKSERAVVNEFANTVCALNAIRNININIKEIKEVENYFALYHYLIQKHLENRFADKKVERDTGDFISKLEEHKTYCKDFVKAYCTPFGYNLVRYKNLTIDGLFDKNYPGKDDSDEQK
Experiment: crRNA (strand 1, pre-loaded); Mg2+; 40 mM Tris-HCl pH 7.5, 150 mM NaCl, 6 mM MgCl2, 1 mM DTT, 0.1% Tween-20, 0.2 mg/ml BSA; 25 C; 10 min per concentration, then washed
Settings: tags: His6-TwinStrep-SUMO cleaved; N-terminal SNAP kept (SNAP-Surface 488); label: 3' end held by stalled T7 RNA polymerase

| Binder | Kd [nM] |
| --- | --- |
| B1 | 7.7 ± 0.5 |
| B2 | 45 ± 10 |
| B3 | 27.1 ± 2.2 |
| B4 | 26 ± 9 |
| B5 | 1.87 ± 0.32 |
| B6 | 12.4 ± 1.9 |
| B7 | 55 ± 8 |
| B8 | 10.2 ± 1.5 |
| B9 | 11.3 ± 1.2 |
| B10 | 16.6 ± 1.6 |
| B11 | 3.01 ± 0.34 |
| B12 | 5.6 ± 1.2 |
| B13 | 3.7 ± 0.7 |
| B14 | 27 ± 12 |
| B15 | 4.6 ± 0.4 |
| B16 | 12.6 ± 1.4 |
| B17 | 27 ± 6 |
| B18 | 7.9 ± 1.1 |
| B19 | 8.2 ± 0.5 |

| Binder | Kd [nM] |
| --- | --- |
| B20 | 4 ± 0.4 |
| B21 | 19.2 ± 2.8 |
| B22 | 17 ± 4 |
| B23 | 37 ± 15 |
| B24 | 15.2 ± 2.7 |
| B25 | 32 ± 4 |
| B26 | 13.8 ± 3.4 |
| B27 | 8.1 ± 0.8 |
| B28 | 1.69 ± 0.2 |
| B29 | 20 ± 4 |
| B30 | 28 ± 4 |
| B31 | 4.8 ± 0.5 |
| B32 | 10 ± 1.7 |
| B33 | 14 ± 1.9 |
| B34 | 20.4 ± 2.3 |
| B35 | 21.3 ± 2.8 |
| B36 | 9.8 ± 0.9 |
| B37 | 4.7 ± 0.8 |
| B38 | 9.8 ± 1 |
